Consider one molecule from paper PMC8269962 (Nature, 2021).

The experiment addresses T1, B/Vic-I53_dn5 nanoparticle (Influenza B virus B/Brisbane/60/2008 …, strain).
T1 chain: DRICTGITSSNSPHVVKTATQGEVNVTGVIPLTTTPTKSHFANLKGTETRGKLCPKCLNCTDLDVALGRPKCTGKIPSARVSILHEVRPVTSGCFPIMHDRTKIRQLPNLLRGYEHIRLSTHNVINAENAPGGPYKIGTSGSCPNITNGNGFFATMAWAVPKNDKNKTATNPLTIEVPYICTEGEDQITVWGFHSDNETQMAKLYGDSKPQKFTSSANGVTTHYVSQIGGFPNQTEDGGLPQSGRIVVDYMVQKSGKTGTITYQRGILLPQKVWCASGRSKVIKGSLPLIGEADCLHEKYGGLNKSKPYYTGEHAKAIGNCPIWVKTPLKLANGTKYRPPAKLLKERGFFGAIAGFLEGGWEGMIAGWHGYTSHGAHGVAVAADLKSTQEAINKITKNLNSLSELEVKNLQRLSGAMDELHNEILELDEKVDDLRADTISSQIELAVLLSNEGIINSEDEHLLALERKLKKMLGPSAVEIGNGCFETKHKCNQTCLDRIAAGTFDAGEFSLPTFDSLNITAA
Nature of the experiment: ELISA. For orientation: ELISA stands for enzyme-linked immunosorbent assay.

B1: CR8071 (antibody, V domains shown)
VH: QVQLVQSGAEVKKPGASVRVSCRASGYIFTESGITWVRQAPGQGLEWMGWISGYSGDTKYAQKLQGRVTMTKDTSTTTAYMELRSLRYDDTAVYYCARDVQYSGSYLGAYYFDYWSPGTLVTVSS
VL: QSVLTQPPSASGTPGQRVTISCSGSSSNIGTNYVYWYQQFPGTAPKLLIYRSYQRPSGVPDRFSGSKSGSSASLAISGLQSEDEADYYCATWDDSLDGWVFGGGTKLTVL
In the case of B1, the binding result was “binds”.
